# Reference: patent publication US20070167369A1, “Novel use of isolated polypeptide comprising four FAS-1 domains, EM1 domain and RGD motif” (KYUNGPOOK NATIONAL UNIVERSITY INDUSTRY-ACADEMIC COOPERATION …, priority 2004, published 2007)
# B1: truncated βig-h3: recombinant human βig-h3 with EMI domain, all four fas-1 domains and RGD motif; residues 68-653 of SEQ ID NO: 1 (SEQ ID NO: 66) (protein, listed as Homo sapiens)
# chain: WYQRKICGKSTVISYECCPGYEKVPGEKGCPAALPLSNLYETLGVVGSTTTQLYTDRTEKLRPEMEGPGSFTIFAPSNEAWASLPAEVLDSLVSNVNIELLNALRYHMVGRRVLTDELKHGMTLTSMYQNSNIQIHHYPNGIVTVNCARLLKADHHATNGVVHLIDKVISTITNNIQQIIEIEDTFETLRAAVAASGLNTMLEGNGQYTLLAPTNEAFEKIPSETLNRILGDPEALRDLLNNHILKSAMCAEAIVAGLSVETLEGTTLEVGCSGDMLTINGKAIISNKDILATNGVIHYIDELLIPDSAKTLFELAAESDVSTAIDLFRQAGLGNHLSGSERLTLLAPLNSVFKDGTPPIDAHTRNLLRNHIIKDQLASKYLYHGQTLETLGGKKLRVFVYRNSLCIENSCIAAHDKRGRYGTLFTMDRVLTPPMGTVMDVLKGDNRFSMLVAAIQSAGLTETLNREGVYTVFAPTNEAFRALPPRERSRLLGDAKELANILKYHIGDEILVSGGIGALVRLKSLQGDKLEVSLKNNVVSVNKEPVAEPDIMATNGVVHVITNVLQPPANRPQERGDELADSALEI
# B2: fas-1 domain: recombinant protein containing the fourth fas-1 domain of human βig-h3 (SEQ ID NO: 64) (protein, listed as Homo sapiens)
# chain: MGTVMDVLKGDNRFSMLVAAIQSAGLTETLNREGVYTVFAPTNEAFRALPPRERSRLLGDAKELANILKYHIGDEILVSGGIGALVRLKSLQGDKLEVSLKNNVVSVNKEPVAEPDIMATNGVVHVITNVL
# Experiments:
# HUVECs [1] = experiment: Binding of biotin-βig-h3 to HUVECs, Western immuno-blotting (Example 3-4); set-up: species or system human; settings: biotinylated βig-h3
# Protocol: To confirm that HUVECs adhesion that is mediated by βig-h3 depends on αvβ3 integrin, the present inventors tested the binding affinity of βig-h3 in the presence of an antibody that specifically blocks the function of the integrin. This binding assay was performed according to the method described by Maile, L. A., et al., J. Biol. Chem., […].
# First, HUVECs were suspended in medium at a density of 1×10^5 cells/ml. 1 ml of the cell suspension was preincubated with anti-[…] antibody (LM609) or anti-αvβ5 antibody (P1F6) at 37° C. for 30 minutes. Thereafter, the preincubated cells were incubated with biotinylated βig-h3 (hereinafter, referred to as “biotin-βig-h3”) in a serum-free medium containing 0.1% BSA at 4° C. for 5 hours. The biotin-βig-h3 was added at concentrations of […], respectively. Then, the cells were washed three times with PBS buffer (pH 7.4), and dissolved at 4° C. in ice-cold buffer A (10 mM Tris-Cl, pH 7.4, 150 mM NaCl, 1% Nonidet P-40, 1% sodium deoxycholate, 0.5% SDS, 0.02% sodium azide, 1 mM EDTA, 1 mM phenylmethylsulfonyl fluoride). The cell lysates were clarified by centrifugation at 13,000 rpm for 30 minutes at 4° C. Equal amounts of protein were then separated by SDS-PAGE, 8% gel. The amount of biotin-βig-h3 was determined by Western immuno-blotting. […]
# HUVECs [2] = experiment: Adhesion of endothelial cells to fibronectin, vitronectin or collagen (Example 5-1); type: cell-based, human
# Protocol: Flat-bottomed 96-well ELISA (enzyme-linked immunosorbent assay) plates (Costar, Corning Inc., NY) were incubated overnight at 4° C. with 10 μg/ml of fibronectin (Promega Inc., USA), vitronectin (Promega Inc., USA) and collagen, respectively, to coat the well surface. Then, a test was performed in the same manner as in Example 4-1 above.
# HUVECs [3] = experiment: Endothelial cell proliferation, MTT (Example 6); type: cell-based, human; settings: 48 hours
# Protocol: HUVECs were suspended in medium at a density of 3×10^4 cells/ml, and 0.1 ml of the cell suspension was added to each well of 96-well plate and incubated at 37° C. overnight. The cells were washed with PBS buffer, and then incubated at 37° C. for 24 hours in serum-free medium. Thereafter, 0.2% FBS-containing medium containing the indicated concentrations of the fas-1 domain (βig-h3 D-IV) prepared in Example 1 was added to each well of the plate and incubated at 37° C. for 48 hours. A control was added with 2% BSA instead of the fas-1 domain. 50 μl of 0.5 mg/ml thiazolyl blue (MTT; Sigma) solution was added to each well, and allowed to react at 37° C. for 4 hours. After the reaction, the medium was removed, and each well was added with DMSO and left to stand at room temperature for a few minutes. Thereafter, the absorbance was measured at 570 nm in a Bio-Rad model 550 microplate reader.
# β5/HEK293 cells = experiment: Apoptosis by annexin V staining, β5/HEK293 cells expressing αvβ5 integrin (Example 8); type: cell-based; settings: annexin V FACS
# Protocol: To identify an integrin that mediates the induction of endothelial cell apoptosis by the fas-1 domain, the present inventors performed a test using HEK293 cells (β3/HEK293 and β5/HEK293) which had been transfected such as to express αvβ3 integrin or αvβ5 integrin.
# Meanwhile, a β5/HEK293 cell that expresses αvβ5 integrin was prepared in the following manner. In order to construct a human β5 integrin expression vector, RT-PCR using human placenta poly(A)^+ RNA as a template was first performed to prepare a 2.8-kb β5 cDNA (Suzuki et al., Proc. Natl. Acad. Sci. USA, 87:5354-5358, 1990). The amplified β5 cDNA was digested with EcoRI, and then cloned into a pcDNA3 vector (Invitrogen). The resulting vector was named “β5/pcDNA3”. Thereafter, 1 μg of the β5/pcDNA3 vector was introduced into HEK293 cells (ATCC, catalog No. CRL 1573) by lipofectamin (Gibco). A stable transfected cell was screened using 1 mg/ml of G418. The cell transfected with the β5/pcDNA3 vector was named “β5/HEK293”.
# pc/HEK293 cells, β3/HEK293 cells and β5/HEK293 cells were stained with annexin V to identify an integrin that mediates the induction of endothelial cell apoptosis by the fas-1 domain. Each of the cells was suspended in medium at a density of 5×10^5 cells/ml, added to each well of 6-well plated and incubated at 37° C. overnight. Following this, a test was performed in the same manner as in Example 7-1 above.
# [4] = test system: tumors derived from fas-1/B16F10 cells; experiment: Growth of tumors derived from fas-1-overexpressing melanoma cells (Example 10-2); type: in vivo, mice; settings: fas-1 domain overexpressed in the implanted B16F10 cells
# Protocol: Each of the fas-1-overexpressing melanoma cells (fas-1/B16F10) and the control cells (pLNCX/B16F10) was suspended in medium at a density of 1×10^7 cells/ml. 0.1 ml of each of the cell suspensions was injected subcutaneously to 5-6 week old mice (Hyochang scientific company, Korea) to make a tumor model. Since the diameter of the tumor reached about 3 mm, the body weight and tumor size of the mice were checked at intervals of three days. The longest diameter and the shortest diameter of the tumor were measured with slide calipers, and the measured values were substituted in the following equation (1) to calculate the volume of the tumor. Volume of tumor=a×b^2/2 [Equation 1]
# Wherein, ‘a’ is the shortest diameter of the tumor, and ‘b’ is the longest diameter of the tumor.
molecule,measurement,setting,value
B1,binding to HUVECs surface,HUVECs [1],bound to HUVECs surface in a dose-dependent manner
B2,inhibition of adhesion of HUVECs to collagen,HUVECs [2]; plate coated with 10 μg/ml collagen,only partially inhibited
same,inhibition of adhesion of HUVECs to fibronectin,HUVECs [2]; plate coated with 10 μg/ml fibronectin,completely inhibited
same,inhibition of adhesion of HUVECs to vitronectin,HUVECs [2]; plate coated with 10 μg/ml vitronectin,completely inhibited
same,inhibition of proliferation of endothelial cells,HUVECs [3],inhibited by fas-1 domain in a dose-dependent manner
same,induction of apoptosis of β5/HEK293 cells,β5/HEK293 cells,not induced
same,growth of tumors derived from melanoma cells,[4],inhibits the in vivo growth of tumors derived from the melanoma cells
